Molecular target: the molecule itself
Assay: SEC; supernatant (500 µl) of transfected HEK293T cells with FLAG-tagged Otolin on Superdex 200 HR 10/30 in PBS; fractions immunoblotted with anti-FLAG M2

B1: C-terminal FLAG-tagged Otolin (natural protein, mouse, UniProt Q4ZJM7 24-482, looked up)
chain: KTTPYTKFTKKSEGKEMLKGLKPSSGFFLDGEETVHTETAAMAEPTTGSPALAMAESTAGPSASATTRLLPFESFSLDTTGFVLNCCHCCSFVTGQKGEPGKMGKQGPKGETGDTGSPGHPGTTGPQGPKGQKGEKGLKGDRGDQGAGGIPGYPGKPGEQGALGPKGDKGTIGPAGTKGQKGSKGELCGNGTKGEKGDPGASGAHGFIGEPGAKGEKGGVGEKGYRGDLGERGEKGQKGEKGMEGEKGSRGDVGSEGKRGSDGLPGLRGDSGPKGEKGEIGSPGFTGPAGPKGELGSKGVRGPTGKKGSRGVKGSKGEATQVPQSAFSALLSKPFPPPNVPIKFDKILSNDQGDYSPVTGKFNCSVPGTYIFSYHVTVRGRPARISLVARNRKQFKSRETLYGQQVDQASLLLILKLSAGDQVWLEVSKDWNGLYVGPEDDSIFSGFLLYPEETFSKSP
modifications: hydroxyproline at Pro-141, 144, 174, 177, 180, 222, 234, 288 and 306; Lys-189 and Lys-315 hydroxylated and glycosylated with a glucosyl-galactosyl group (mass spectrometry of purified recombinant Otolin)
notes: Otolin, mouse, GenBank DQ002405; entire coding region (482 amino acids, own signal peptide) cloned and expressed; the secreted protein was collected from the medium; also called otolin-FLAG; recombinant Otolin; source: HEK293T, transiently transfected; not shown: FLAG, C-terminal, kept
binding result: binds
